Values belong to the substance of their own block, whether it stands above or below them.
Key:
[1] = biological target: Δ1-pyrroline-5-carboxylate dehydrogenase from Bacillus licheniformis (Bacillus licheniformis); assay: DLS
[2] = biological target: DrP5CDHR102A (Deinococcus radiodurans); assay: SAXS + other: DLS
[3] = biological target: Δ1-pyrroline-5-carboxylate dehydrogenase from Thermus thermophilus (Thermus thermophilus HB27); assay: SAXS + other: DLS
[4] = biological target: TtP5CDHR111A (Thermus thermophilus HB27); assay: SAXS + other: DLS
[5] = biological target: TtP5CDHR153A (Thermus thermophilus HB27); assay: DLS
[6] = biological target: Δ1-pyrroline-5-carboxylate dehydrogenase from Bacillus halodurans (Bacillus halodurans); assay: SAXS + other: DLS
[7] = biological target: Δ1-pyrroline-5-carboxylate dehydrogenase from Deinococcus radiodurans (Deinococcus radiodurans); assay: SAXS + other: DLS
[8] = biological target: TtP5CDHR100A/K104A/R111A (Thermus thermophilus HB27); assay: DLS
[9] = biological target: TtP5CDHR100A (Thermus thermophilus HB27); assay: SAXS + other: DLS
[10] = biological target: TtP5CDHK104A (Thermus thermophilus HB27); assay: DLS

stoichiometry N [2]: 2
Substance: DrP5CDHR102A (enzyme)

stoichiometry N [3]: 6
Substance: Δ1-pyrroline-5-carboxylate dehydrogenase from Thermus thermophilus (enzyme)

stoichiometry N [7]: 6
Substance: Δ1-pyrroline-5-carboxylate dehydrogenase from Deinococcus radiodurans (enzyme)

stoichiometry N [8]: 2
Substance: TtP5CDHR100A/K104A/R111A (enzyme)

stoichiometry N [9]: 2
Substance: TtP5CDHR100A (enzyme)

stoichiometry N [10]: 6
Substance: TtP5CDHK104A (enzyme)

Continued, substance first:

Substance: Δ1-pyrroline-5-carboxylate dehydrogenase from Bacillus licheniformis (enzyme)
stoichiometry N [1]: 2

Substance: TtP5CDHR111A (enzyme)
stoichiometry N [4]: 6

Substance: TtP5CDHR153A (enzyme)
stoichiometry N [5]: 6

Substance: Δ1-pyrroline-5-carboxylate dehydrogenase from Bacillus halodurans (enzyme)
stoichiometry N [6]: 2

From paper PMC3743950
